Test results taken from patent publication US20240148892A1.

Biological target: human full-length B7H3 expressed on MCF-7 cells (human) (UniProt Q5ZPR3)
Assay: cell-based or functional assay

Sequence of human full-length B7H3 expressed on MCF-7 cells (human) (Q5ZPR3 29-534 limits assumed): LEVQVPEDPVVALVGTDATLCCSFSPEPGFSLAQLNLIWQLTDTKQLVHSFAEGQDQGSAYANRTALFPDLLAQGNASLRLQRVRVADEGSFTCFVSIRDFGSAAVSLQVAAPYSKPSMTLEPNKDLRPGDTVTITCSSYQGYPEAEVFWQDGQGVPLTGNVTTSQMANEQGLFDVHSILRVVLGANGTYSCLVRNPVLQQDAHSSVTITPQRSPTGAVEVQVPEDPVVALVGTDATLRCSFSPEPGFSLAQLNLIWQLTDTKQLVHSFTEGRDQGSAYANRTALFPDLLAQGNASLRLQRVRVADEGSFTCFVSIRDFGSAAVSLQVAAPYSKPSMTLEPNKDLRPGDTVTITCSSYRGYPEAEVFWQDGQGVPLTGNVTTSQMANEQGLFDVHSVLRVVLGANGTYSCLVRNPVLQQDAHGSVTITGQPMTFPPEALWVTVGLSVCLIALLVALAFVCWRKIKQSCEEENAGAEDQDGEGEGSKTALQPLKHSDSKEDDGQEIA

IC50 of inhibition of proliferation, A375 melanoma cells (CellTiter-Glo): 315 nM
IC50 of inhibition of proliferation, A549 lung cancer cells (CellTiter-Glo): 378 nM
IC50 of inhibition of proliferation, Calu-6 lung cancer cells (CellTiter-Glo): 428 nM
IC50 of inhibition of proliferation, HT-29 colorectal cancer cells (CellTiter-Glo): 1140 nM
IC50 of inhibition of proliferation, MCF-7 breast cancer cells (CellTiter-Glo): 435 nM
IC50 of inhibition of proliferation, NCI-H358 lung cancer cells (CellTiter-Glo): 123 nM
IC50 of inhibition of proliferation, NCI-H1568 lung cancer cells (CellTiter-Glo): 32.8 nM
IC50 of inhibition of proliferation, PC-3 prostate cancer cells (CellTiter-Glo): 959 nM
IC50 of inhibition of proliferation, U87 MG brain cancer cells (CellTiter-Glo): 354 nM
B1: reference ADC-1 (Daiichi Sankyo, DS7300) (protein, INN chains, looked up)
VH: QVQLVQSGAEVKKPGSSVKVSCKASGYTFTNYVMHWVRQAPGQGLEWMGYINPYNDDVKYNEKFKGRVTITADESTSTAYMELSSLRSEDTAVYYCARWGYYGSPLYYFDYWGQGTLVTVSS
VL: EIVLTQSPATLSLSPGERATLSCRASSRLIYMHWYQQKPGQAPRPLIYATSNLASGIPARFSGSGSGTDFTLTISSLEPEDFAVYYCQQWNSNPPTFGQGTKVEIK
modifications: deruxtecan payload
